For test [1], the target named is T1, cyAXL-ECD displayed on yeast.
T1 construct: extracellular domain; 'cy' read as cynomolgus
In words: yeast surface display ELISA, non-denatured yeast, goat anti-human F(ab')2-HRP. (In an ELISA, binding on a coated surface is turned into a signal by an enzyme label.)

Test [2] has as its target T2, huTyro3-ECD displayed on yeast (human, UniProt Q06418 41-429).
T2 construct: extracellular domain
T2 sequence (looked up): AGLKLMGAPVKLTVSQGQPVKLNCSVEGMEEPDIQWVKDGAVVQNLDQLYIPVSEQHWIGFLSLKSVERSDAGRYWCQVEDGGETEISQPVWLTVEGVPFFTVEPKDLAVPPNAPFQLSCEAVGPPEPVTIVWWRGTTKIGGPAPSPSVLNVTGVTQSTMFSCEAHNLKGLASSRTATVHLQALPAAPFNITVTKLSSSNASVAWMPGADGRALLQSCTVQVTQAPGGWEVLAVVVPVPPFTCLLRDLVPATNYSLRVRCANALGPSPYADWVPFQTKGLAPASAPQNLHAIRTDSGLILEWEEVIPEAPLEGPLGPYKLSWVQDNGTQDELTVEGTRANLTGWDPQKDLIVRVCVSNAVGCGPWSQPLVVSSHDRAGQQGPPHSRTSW
The description is as above.

In test [3] the target is T3, huMER-ECD displayed on yeast (human, UniProt Q12866 21-505).
T3 construct: extracellular domain
T3 sequence (looked up): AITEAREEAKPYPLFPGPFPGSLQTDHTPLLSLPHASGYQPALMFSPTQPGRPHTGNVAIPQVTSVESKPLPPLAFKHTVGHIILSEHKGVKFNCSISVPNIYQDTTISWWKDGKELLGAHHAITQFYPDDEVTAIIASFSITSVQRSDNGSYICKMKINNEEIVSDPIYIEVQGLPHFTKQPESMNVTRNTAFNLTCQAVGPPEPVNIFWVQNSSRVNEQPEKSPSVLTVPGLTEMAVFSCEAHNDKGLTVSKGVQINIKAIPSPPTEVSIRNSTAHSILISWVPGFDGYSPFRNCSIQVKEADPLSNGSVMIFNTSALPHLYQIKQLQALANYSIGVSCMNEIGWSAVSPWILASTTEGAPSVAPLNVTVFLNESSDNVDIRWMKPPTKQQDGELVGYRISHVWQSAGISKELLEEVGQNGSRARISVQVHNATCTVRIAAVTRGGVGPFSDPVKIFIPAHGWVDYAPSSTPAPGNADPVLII
Described as above.

The target of test [4] is T4, recombinant human AXL extracellular domain, C-terminally His8-tagged (rhAXL-ECD) (human, UniProt P30530 26-451).
T4 construct: Made in CHO cells; also called (rh)AXL-ECD His8; human AXL ECD
T4 sequence: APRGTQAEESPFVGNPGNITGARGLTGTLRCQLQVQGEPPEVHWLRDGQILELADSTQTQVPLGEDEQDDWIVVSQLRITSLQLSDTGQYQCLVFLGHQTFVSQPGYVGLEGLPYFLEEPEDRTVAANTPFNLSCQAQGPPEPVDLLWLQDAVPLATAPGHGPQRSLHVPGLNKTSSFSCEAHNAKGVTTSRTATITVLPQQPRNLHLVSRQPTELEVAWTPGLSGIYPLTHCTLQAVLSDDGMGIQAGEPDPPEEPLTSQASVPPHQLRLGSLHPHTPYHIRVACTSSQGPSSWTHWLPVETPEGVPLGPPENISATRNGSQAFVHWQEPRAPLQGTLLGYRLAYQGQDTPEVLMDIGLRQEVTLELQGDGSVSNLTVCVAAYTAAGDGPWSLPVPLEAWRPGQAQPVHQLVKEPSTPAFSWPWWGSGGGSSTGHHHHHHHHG
The experiment in a line: ELISA on coated AXL ECD (100 ng/well), HRP-protein A. On the procedure: (§1) ELISA. ELISAs against human, cyno and mouse AXL ECDs were conducted by immobilizing 100 ng of each protein in wells of Nunc MaxiSorp microplates overnight. Human AXL (aa 1-451) and cyno AXL (aa 1-449) were produced recombinantly as described in Example 10. Mouse AXL was purchased from Sino (cat. 51026-M08H). The next day, plates were blocked with 5% (w/v) dried milk in PBS. Murine mAbs (either hybridoma- or recombinantly-produced) or VHH-Fcs were diluted in PBS containing 1% BSA and 0.1% Tween-20 and added to wells for 2 hours at room temperature. Wells were washed 5× with PBS containing 0.1% Tween-20, then HRP-labeled protein A (diluted 1:1000 in PBS containing 1% BSA and 0.1% Tween™-20) was added to wells for 1 hour at room temperature. Wells were washed again 5× with PBS/0.1% Tween-20 and developed using TMB substrate. Absorbance was measured at 450 nm. As a positive control for mouse AXL binding, a commercial anti-mouse AXL mAb (clone 175128, R&D Systems MAB8541, rat IgG2A) was used and detected with donkey […] secondary antibody.

For test [5], the target named is T4, recombinant human AXL extracellular …. In words: SPR Biacore T200, mAb captured on anti-Fc, AXL ECD flowed, single-cycle kinetics. As for the experimental part: (§2) Surface plasmon resonance. For murine mAbs, binding to human and cynomolgus AXL ECD was assessed using a Biacore T200 instrument. Briefly, either anti-mouse or anti-human Fc antibody was immobilized on a research-grade CM5 series S sensor chip using amine coupling in acetate buffer. Murine or recombinant chimeric murine-human mAbs (mouse VH/VL; human constant regions) were captured, then recombinant human or cyno AXL ECD was flowed over the surface at different concentration ranges (0.1-500 nM) depending on the antibody. The running buffer was PBS/Tween-20 and the flow rate 100 uL/min. All binding studies were performed at 25° C. Surfaces were regenerated using 10 mM glycine, pH 1.5.
In general terms: SPR reads the build-up and loss of mass on a sensor chip optically.

For test [6], the target named is T5, recombinant cynomolgus AXL extracellular domain (cynomolgus).
T5 construct: range 1-449; also called Cyno AXL; cyno AXL ECD
The experiment in a line: SPR Biacore T200, mAb captured on anti-Fc, AXL ECD flowed, steady-state analysis. As for the experimental part:
as §2

In test [7] the target is T6, mouse AXL extracellular domain (Sino cat. 51026-M08H) (mouse, UniProt Q00993 19-445).
T6 construct: extracellular domain; Bought protein; also called mouse AXL ECD
T6 sequence (looked up): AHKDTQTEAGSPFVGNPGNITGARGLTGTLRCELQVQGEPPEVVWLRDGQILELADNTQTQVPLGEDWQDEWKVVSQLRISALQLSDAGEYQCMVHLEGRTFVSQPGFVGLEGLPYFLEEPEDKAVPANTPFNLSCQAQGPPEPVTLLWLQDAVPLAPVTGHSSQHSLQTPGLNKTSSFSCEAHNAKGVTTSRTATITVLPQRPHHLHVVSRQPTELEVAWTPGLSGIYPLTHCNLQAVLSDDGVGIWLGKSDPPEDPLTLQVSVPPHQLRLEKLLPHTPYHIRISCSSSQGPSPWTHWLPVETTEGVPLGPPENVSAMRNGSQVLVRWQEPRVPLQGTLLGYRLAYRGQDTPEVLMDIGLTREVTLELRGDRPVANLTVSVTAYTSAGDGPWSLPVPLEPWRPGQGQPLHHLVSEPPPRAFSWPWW
In words: ELISA on coated mouse AXL ECD (100 ng/well). As for the experimental part: as §1

In test [8] the target is T7, human AXL expressed on the cell surface of tumor cell lines (human, UniProt P30530 26-894).
T7 construct: whole, on cells; also called cell surface-expressed AXL; cell-based AXL
T7 sequence (looked up): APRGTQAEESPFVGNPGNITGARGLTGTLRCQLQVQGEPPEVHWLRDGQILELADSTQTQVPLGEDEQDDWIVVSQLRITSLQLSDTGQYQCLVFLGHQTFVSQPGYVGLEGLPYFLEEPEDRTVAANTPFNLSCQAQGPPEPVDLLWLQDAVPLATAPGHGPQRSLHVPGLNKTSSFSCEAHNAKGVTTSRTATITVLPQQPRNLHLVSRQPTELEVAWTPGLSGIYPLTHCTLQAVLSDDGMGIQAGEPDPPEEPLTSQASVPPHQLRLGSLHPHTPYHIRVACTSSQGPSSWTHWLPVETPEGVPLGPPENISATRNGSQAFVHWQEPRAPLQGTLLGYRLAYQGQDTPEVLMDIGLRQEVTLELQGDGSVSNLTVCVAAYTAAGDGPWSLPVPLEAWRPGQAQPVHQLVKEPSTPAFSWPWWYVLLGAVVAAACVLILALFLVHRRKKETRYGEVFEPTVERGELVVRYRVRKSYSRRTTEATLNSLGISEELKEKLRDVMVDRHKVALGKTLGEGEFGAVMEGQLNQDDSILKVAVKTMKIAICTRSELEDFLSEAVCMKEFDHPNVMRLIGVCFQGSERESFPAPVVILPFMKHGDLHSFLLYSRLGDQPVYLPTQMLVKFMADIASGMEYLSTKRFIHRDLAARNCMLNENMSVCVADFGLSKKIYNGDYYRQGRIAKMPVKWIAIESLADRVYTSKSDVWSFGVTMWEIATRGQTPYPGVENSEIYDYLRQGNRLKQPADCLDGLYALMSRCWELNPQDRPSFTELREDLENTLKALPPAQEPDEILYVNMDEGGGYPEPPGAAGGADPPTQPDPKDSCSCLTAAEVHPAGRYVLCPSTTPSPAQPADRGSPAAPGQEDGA
In words: FACS on NCI-H292 cells, apparent Kd. As for the experimental part:
(§3) FACS binding assay. Adherent cells were dissociated with non-enzymatic Sigma Cell Dissociation Solution (Cat. No. C5789). Cells suspensions were added to polypropylene, V-bottom 96-well plates and incubated for 2 hours on ice with primary antibodies at concentrations ranging from 100 nM to 0.001 nM or at a single dose of 100 nM (for the non-specific control). After incubation and washes, cells were incubated with fluorescently labeled secondary antibody (Alexa Fluor® 488 anti-human IgG from Jackson Cat. No 709-546-098) for 1 hour on ice, then washed. Cell viability was determined using Fixable viability dye 450 (20 min on ice). Stained cells were fixed in 1% formaldehyde at 4° C. and stored at 4° C. until acquisition which was performed the next day.
(§4) Binding of recombinant chimeric Abs to three cell lines was assessed by FACS as described above. The apparent Bmax and Kd determination is shown below in Table 14.

The target of test [9] is T7, human AXL expressed on the cell surface …. In words: FACS on MDA-MB-231 luciferase cells, apparent Kd. As for the experimental part:
as §3, §4

Test [10] shares this target. The experiment in a line: FACS on SKOV3 cells, apparent Kd. As for the experimental part: as §3, §4
In test [11] the target is T4, recombinant human AXL extracellular …. In words: SPR Biacore T200, mAb captured on anti-Fc, AXL ECD flowed (no footnote in the cell). As for the experimental part: as §2
The target of test [12] is T5, recombinant cynomolgus AXL …. The experiment in a line: SPR Biacore T200, mAb captured on anti-Fc, AXL ECD flowed, single-cycle kinetics. As for the experimental part:
as §2

Changes are numbered by the printed parent chain.

Broadly, the EC50 is the concentration giving half of the maximal effect. As a reminder, the koff is a measure of how fast the partners let go of each other. For orientation: kon means the second-order rate constant of association.

B1: NRC-sdAb003-Fc (VHH-human IgG1 Fc fusion) (Fc fusion)
chain: QVQLVESGGGLVQAGGSLRLSCAASGVTLDYTAIGWFRQAPGKERELVAAITSGGNTDYAESAKGRFRISRDNSKNTIYLQMNSLKPEDTGVYYCAARRGGARGEYDYWDQGTQVTVSS
notes: VHH fused N-terminally to human IgG1 Fc; also called NRC-sdAb0003-Fc; NRC-sdAb003-hIgG1; not shown: human IgG1 Fc
In the case of B1, the “yeast ELISA signal normalized to myc expression level” value in test [1] was 0.668; in test [2], -0.005; in test [3], -0.009.

B2: hFC-F107-8D12 (antibody, human IgG1, kappa, V domains shown)
VH: QVQLQQPGAELVKPGASVQLSCKASGYTFISFWINWVKQRPGQGLEWMGNIFPGSSSTNYNEKFKSKATLTVDKSSSTAYMQLSSLTSEDSAVYFCARDYYGGSPDYWGQGTTLTVSS
VL: DIVMSQSPSSLAVSAGERVTMSCKSSQSLLNTRTRKNYLAWYQQKPGQSPKLLIYWASTRESGVPDRFTGSGSGTDFTLTISSVQAEDLAVYYCKQSYNLWTFGGGTKLEIKR
notes: Chimeric mAb, human IgG1 / human kappa constant regions; also called mAb F107-8D12; chimeric F107-8D12
With B2, the EC50 in test [4] worked out at 1 nM. In [5], the Kd amounted to 5 nM, the dissociation rate constant (koff) was 0.013 s⁻¹ and the kon is 2.7e+06 M⁻¹ s⁻¹. In test [6], the Kd was determined as 1840 nM. Further, the binding result in [7] is recorded as “no binding”.

B3: hFC-F107-7H5 (antibody, human IgG1, kappa, V domains shown)
VH: QVQLQQPGAELVKPGASVKLSCKASGYTFTSYWINWVKQRPGQGLEWIGNIYPDSSSTNYNEKFKSKATLTVDKSSTTAYIQFSSLTSEDSAVYYCTRDTYGGSPDYWGQGTTLTVSS
VL: B2 VL with R18K, T32S, N37I, E61Q
notes: Chimeric mAb, mouse VH/VL on human IgG1 heavy and human kappa light constant regions, made in CHO cells; also called mAb F107-7H5; hIgG-F107-7H5
For the molecule B3, the Kd in [8] came to 0.0509 nM; in test [9], 0.17 nM; in test [10] it was 0.07 nM; in test [5] it was 1 nM; in test [6] it was 925 nM. In addition, the concentration giving a half-maximal response (EC50) in test [4] worked out at 6 nM. In addition, the binding result in test [7] is listed as “no binding”. Further, in [11], the dissociation rate constant (koff) stood at 0.0015 s⁻¹. In addition, the kon in [11] worked out at 1.4e+06 M⁻¹ s⁻¹.

B4: hFC-F111-5E9 (antibody, human IgG1, kappa, V domains shown)
VH: QIQLVQSGPELKKPGETVKISCKASGYTFTKYGMNWVKQAPGKGLKWMGWINTYTGEPTYADDFKGRFAFSLETSASTAYLQINNLTTEDMVTYFCAKGGYYSNPIYPMDYWGQGTSVTVSS
VL: DIQMTQTTSSLSASLGDRVTISCRASQDINNYLNWYQQKPDGTVKLLIYYISRLHSGVPSRFSGSGSGTDYSLTISNLELEDVATYFCQQGNTLPFTFGSGTKLEIKR
notes: Chimeric mAb, human IgG1 / human kappa constant regions; also called mAb F111-5E9; hIgG-F111-5E9
As for B4, the Kd in test [9] turned out to be 0.366 nM; in test [12], 4 nM; in test [5], 2 nM. Moreover, the EC50 in [4] turned out to be 2 nM. In addition, the koff came out at 0.0027 s⁻¹ in test [12] and 0.0018 s⁻¹ in [5]. The figures for the kon in test [12] and in test [5] were 690000 M⁻¹ s⁻¹ and 780000 M⁻¹ s⁻¹, respectively. In addition, in [7], the binding result is reported as “no binding”.

The values are drawn from patent publication US20240076389A1 (NATIONAL RESEARCH COUNCIL OF CANADA, published 2024).
